Like-named read-outs stand apart in the source and are kept apart here.

Two substances from paper PMC8786603 can be followed below.

What all share (assay): cryo-EM structure
Assay [1] has as its target SARS-CoV-2 Delta prefusion-stabilized soluble trimeric spike ectodomain (S-trimer) (SARS-CoV-2) (UniProt P0DTC2).
In assay [2] the target is SARS-CoV-2 Omicron prefusion-stabilized soluble trimeric spike ectodomain (S-trimer) (SARS-CoV-2) (UniProt P0DTC2).
Assay [3] shares this target. This is another data set of the same source.

Turning to “SARS-CoV-2 Delta prefusion-stabilized soluble trimeric spike ectodomain (S-trimer) (from UniProt P0DTC2 14-1208) (natural protein)”, the stoichiometry N in assay [1] stood at 3 protomers.
For “SARS-CoV-2 Omicron prefusion-stabilized soluble trimeric spike ectodomain (S-trimer) (from UniProt P0DTC2 14-1208) (natural protein)”, the stoichiometry N in assay [2] and in assay [3] was 3 protomers each time.

A word on the stoichiometry N: it is the number of molecules, sites or subunits per partner or assembly.
